B1: KOD pol wildtype (3'-5'-exonuclease deficient Thermococcus kodakaraensis DNA polymerase) (Thermococcus kodakarensis KOD1; D141A/E143A) (protein)
chain 1: MILDTDYITEDGKPVIRIFKKENGEFKIEYDRTFEPYFYALLKDDSAIEEVKKITAERHGTVVTVKRVEKVQKKFLGRPVEVWKLYFTHPQDVPAIRDKIREHPAVIDIYEYDIPFAKRYLIDKGLVPMEGDEELKMLAFAIATLYHEGEEFAEGPILMISYADEEGARVITWKNVDLPYVDVVSTEREMIKRFLRVVKEKDPDVLITYNGDNFDFAYLKKRCEKLGINFALGRDGSEPKIQRMGDRFAVEVKGRIHFDLYPVIRRTINLPTYTLEAVYEAVFGQPKEKVYAEEITTAWETGENLERVARYSMEDAKVTYELGKEFLPMEAQLSRLIGQSLWDVSRSSTGNLVEWFLLRKAYERNELAPNKPDEKELARRRQSYEGGYVKEPERGLWENIVYLDFR
chain 2: SLYPSIIITHNVSPDTLNREGCKEYDVAPQVGHRFCKDFPGFIPSLLGDLLEERQKIKKKMKATIDPIERKLLDYRQRAIKILAN
chain 3: SYYGYYGYARARWYCKECAESVTAWGREYITMTIKEIEEKYGFKVIYSDTDGFFATIPGADAETVKKKAMEFLKYINAKLPGALELEYEGFYKRGFFVTKKKYAVIDEEGKITTRGLEIVRRDWSEIAKETQARVLEALLKDGDVEKAVRIVKEVTEKLSKYEVPPEKLVIHEQITRDLKDYKATGPHVAVAKRLAARGVKIRPGTVISYIVLKGSGRIGDRAIPFDEFDPTKHKYDAEYYIENQVLPAVERILRAFGYRKEDLRYQKTRQVGLSAWLKPKGT
notes: mature intein-free polymerase expected (precursor holds two inteins); pET21a, E. coli BL21(DE3), Ni resin
B2: KOD pol wildtype (3'-5'-exonuclease deficient Thermococcus kodakaraensis DNA polymerase) (Thermococcus kodakarensis KOD1; D141A/E143A/R1398C) (protein)
chain 1: MILDTDYITEDGKPVIRIFKKENGEFKIEYDRTFEPYFYALLKDDSAIEEVKKITAERHGTVVTVKRVEKVQKKFLGRPVEVWKLYFTHPQDVPAIRDKIREHPAVIDIYEYDIPFAKRYLIDKGLVPMEGDEELKMLAFAIATLYHEGEEFAEGPILMISYADEEGARVITWKNVDLPYVDVVSTEREMIKRFLRVVKEKDPDVLITYNGDNFDFAYLKKRCEKLGINFALGRDGSEPKIQRMGDRFAVEVKGRIHFDLYPVIRRTINLPTYTLEAVYEAVFGQPKEKVYAEEITTAWETGENLERVARYSMEDAKVTYELGKEFLPMEAQLSRLIGQSLWDVSRSSTGNLVEWFLLRKAYERNELAPNKPDEKELARRRQSYEGGYVKEPERGLWENIVYLDFR
chain 2: SLYPSIIITHNVSPDTLNREGCKEYDVAPQVGHRFCKDFPGFIPSLLGDLLEERQKIKKKMKATIDPIERKLLDYRQRAIKILAN
chain 3: SYYGYYGYACARWYCKECAESVTAWGREYITMTIKEIEEKYGFKVIYSDTDGFFATIPGADAETVKKKAMEFLKYINAKLPGALELEYEGFYKRGFFVTKKKYAVIDEEGKITTRGLEIVRRDWSEIAKETQARVLEALLKDGDVEKAVRIVKEVTEKLSKYEVPPEKLVIHEQITRDLKDYKATGPHVAVAKRLAARGVKIRPGTVISYIVLKGSGRIGDRAIPFDEFDPTKHKYDAEYYIENQVLPAVERILRAFGYRKEDLRYQKTRQVGLSAWLKPKGT
notes: as for B1

Substrate: Nc1nc2c(ncn2[C@H]2C[C@H](O)[C@@H](COP(=O)(O)OP(=O)(O)OP(=O)(O)O)O2)c(=O)[nH]1
Assay: purified protein
Assay type: biochemical, Thermococcus kodakarensis
Conditions: matched primer-template C-G (prothrombin factor II), Tris-HCl pH 8, 1.5 mM MgCl2, temperature not stated for kinetics (55 °C in primer extension assay)

Row | Protein | Km | kcat | kcat/Km
1 | B1 | 0.168 ± 0.04 µM | 0.81 ± 0.12 s⁻¹ | 4.8e+06 ± 1.9e+06 M⁻¹ s⁻¹
2 | B2 | 96 ± 21 µM | 8.3 ± 0.6 s⁻¹ | 90000 ± 20000 M⁻¹ s⁻¹

— article PMC5568139, “Variants of sequence family B Thermococcus kodakaraensis DNA polymerase with increased mismatch extension selectivity” (PLoS ONE, 2017)
